Test: yeast display, Sf9 membrane polyspecificity reagent, FACS + sequencing; frameworks hold sequencing errors
Method in brief: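 Synthetic nanobody libraries on Saccharomyces cerevisiae BJ5465 were galactose-induced for 36–48 hours, stained 1 hour at 4 °C with 10% biotinylated, detergent-solubilized Sf9 membrane reagent and enriched on streptavidin microbeads. FACS then separated cells into low and high (top ~1%) gates by anti-HA (expression) and streptavidin (reagent binding) fluorescence. Genes were colony-PCR amplified, MiSeq 2 × 250 sequenced and CDR-length filtered. A clone's polyreactivity label is that of its gate of origin.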

| Sequence | polyreactivity (PSR sort gate) |
| --- | --- |
| QVQLVESGGGLVQAGGSLRLSCAASGSILGRYAMGWYRQAPGKERELVAAISYRGGSTYYADSVKGRFTISRDNAKNTVYLQMNSLKPEDTAVYYCATRDPAFYRRYDYWGQGTQVTVSS | high polyreactivity |
| QVQLVESGGGLVQAGGSLRLSCAASGSSFYSNAMGWYRQAPGKERELVAAISSSGGSTYYADSVKGRFTISRDNAKNTVYLQMNSLKPEDTAVYYCAAYSYYPPYDYWGQGTQVTVSS | high polyreactivity |
| QVQLVESAGGLVQAGGSLRLSCAASGGTFSTYAIGWYRQAPGKEREFVAAITRSGTSTYYADSVKGRFTISRDNAKNTVYLQMNSLKPEDTAVYYCAAGVYSFRYDYWGQGTQVTVSS | low polyreactivity |
| QVQLVESGGGLVQAGGSLRLSCAASGSTFDTYAMGWYRPAPRKERELLAAISRSGTSTYYADSVKGRFTISRDNAKNTVYLQMNSLKPEESAVYYCAAYGPRVNGEIGREYYYWGQGTQVTVSS | low polyreactivity |
| QVQLVESGGGLVQAGGSLRLSCAASGNIFLYYDMGWYRQAPGKERELVADIDSSGASTYYADSVKGRFTISRDNAKNTVYLQMNSLKPEDTAVYYCAAELHWWYAGYEYGYWGQGTQVTVSS | low polyreactivity |
| QVQLVESGGGLVQAGGSLRLSCAASGRTFDDYAMGWSRQAPGTERELVAAITSGGSTYYADSVKGRFTISRDNAKNTVYLQMNSLKPEDTAVYYCNARSPRPYAYRPYDYWGQGTQVTVSS | low polyreactivity |
| QVQLVESGGGLVQAGGSLRLSCAPSGSIFYLNAMGWYRQAPGKERELVAAISKRGSRTYYADSVKGRFTISRDNAKNTVYLQMNSLKPEDTAVYYCNALDTPGYNTEPARQYDHWGQGTQVTVSS | high polyreactivity |
| QVQLVESGGGLVQAGGSLRLSCAASGITFAPYAMGWYRQAPGKERELVATITWSGGSTYYADSVKGRFTISRDNAKNTVYLQMNSLKPEDTAVYYCAAYNDTVPSAAHIYESWGQGTQVTVSS | low polyreactivity |
| QVQHVESGGGLVQAGGSLRLSCAASGSTFDAYAMGWYRQAPGKERELVAAISWSDTTTYYADSVKGRFTISRDTAKNTVYLQMYSLKPEDTAVSYCADEYYFTDGSYTSDYWGPGTQVTVSS | high polyreactivity |
| QVQLVESGGGLVQAGGSLRLSCAASGSIFWYYAMGWYRQAPGKERELVASISSGGSTTYADSVKGRFTISCDNAKNTVYLQMISLKPEDTAVYYCNADYFGGGDYWGQGTQVTVSS | low polyreactivity |
| QVQLVESGGALVQAGGSLRLSCAASGRIIYKNAMRWYRQAPGKETELVATITYSDGTTYYADSVKGRFTISRDNAKNTVYLQMNSLKPEDTAVYYCAAQTDSVESDYWGQGTQVTVSS | low polyreactivity |
| QVQLVESVVGLVQAGGSLRLSCAASGRIFFAYTMGWYRQAPGKERELVAAISSSGSTYYADSVKGRFTISRDNAKNTVYLQMNSLKPEDTAVYYLRVQRRAYRYDYWGQGTKVTVSS | high polyreactivity |
| QVQLVESGGGLVQAGGSLRLICAASGRTFSYYAMGWYRQAPGKERELVATIRFSGGGTYYADSVKGRFTISRDNAKNTVYLQMNSLKPEDTAVYYCNADSIDPFLYDYWGQGTQVTVSS | low polyreactivity |
| QVQLVESGGGLVQAGGSLRLSCAASGIIFLVYAMGWSRQAPGKEGQLVAGISGSATSTNYADSVKGRFTISRDNAKNTVYLEMNSLKPEDTAVYYCAASYYGYYVPDNSKYGYWGQGTQVTVSS | low polyreactivity |
| QVQLVESGGGLVQAGGSLRLSCAASGFIFYRYAMGWYRQAPGKEREFVAAISRSGGSTYYADSVKGRFTISRDNAKNTVYLQKNSLKPEDTAVYYCNTYQHGYYVAEYDYWGQGTQVTVSS | high polyreactivity |
| QVQLVESGGGLVQAGGSLRLSCAASGFILRSYGMAWYRKAPGKERELVAAITRGGSTYYADSVKGRFTISRDNAKNTVYLQMNSLKAEDTAVYYCAARTRYYSQQFDYWGQGTQVTVSS | high polyreactivity |
| QVQLVESGGGLVQAGGSLRLSCAASGNTFQRYTMGWYRQAPGKERELVAAITWSGGNTYYADSVKGRFTISRDNAKNTVYLQMNSLKPEDTAVYYCATYYWLGLSLYDYWGQGTQVTVSS | low polyreactivity |
| QVQLVESGGGLVQAGGSLRLSCAASGFIFWYYAMGWYRQAPGKERELVAAISARDGSTYYADSVKGRFTISRDNAKNTVYLQMNSLKPEDTAVYYCNAVQRYPKFRMDYWGQGTQVTVSS | low polyreactivity |
| QVQLVESGGGLVQAGGSLRLSCAASGITFQDYAMGWYRQAPGKERELVAAISKSGGSTYYADSVKGRFTISRDNAKNTVYLQINSLKPEDTAVYYCATRYLYSNRAYDYWGQGKQVTVSS | high polyreactivity |
| QVQLVESGGGLVQAGGSLRLSCAASGRTFTTYAMGWYRQAPGKARELVAAISDTGGITYYADSVKGRFTISRDNAKNTVYLQMISLKPEDTAVYYCNAESYGGDYDYWGQGTQVTVSS | low polyreactivity |
| QVQLVDSGGGLVQAGGSLRLSCAASGSIFKTYAMGWYRQAPGKERELVATNTRRTGSTYYADSVKGRFTISRDNAMNSVYLQMNSLKPEDPAVYYCAAELYPSWSHTVFHGYNYWGQGTQVTVSS | high polyreactivity |
| QVQLVESGGGLVQAGGSLLLSCAAYGSTFWYNAMGWYRQAHGKESELVAAITWTGSRTYYADSVKGRFTISRDNAKNTVYLQMNSLKPEDTAVYYCNRTRSFTRYDVFYGTIPAFDYWGQGTQVTVSS | high polyreactivity |

Source: the nanobody polyreactivity screen of Harvey et al. (2022)
